Test results from patent publication US20260055369A1 (H LEE MOFFITT CANCER CENTER AND RESEARCH INSTITUTE, published 2026).

How the values were obtained:
[1] = biological target: Notch1 on CHO-K1 N1-Gal4 fluorescent reporter cells (UniProt P46531 19-2555, limits assumed); assay: cell-based or functional assay
[2] = biological target: Notch1 on U2OS hNotch1-Gal4 luciferase reporter cells (human, UniProt P46531 19-2555); assay: cell-based or functional assay
[3] = biological target: T1, hNotch2 (EGF6-13, residues 221-530), biotinylated (human, UniProt Q04721 221-530, Biotinylated in vitro by BirA at the C-terminal BAP-tag (tag not in the letters).); assay: SPR, KD of Delta^MAX against KD of WT DLL4
T1 construct: Immobilised on a streptavidin chip for SPR
T1 sequence: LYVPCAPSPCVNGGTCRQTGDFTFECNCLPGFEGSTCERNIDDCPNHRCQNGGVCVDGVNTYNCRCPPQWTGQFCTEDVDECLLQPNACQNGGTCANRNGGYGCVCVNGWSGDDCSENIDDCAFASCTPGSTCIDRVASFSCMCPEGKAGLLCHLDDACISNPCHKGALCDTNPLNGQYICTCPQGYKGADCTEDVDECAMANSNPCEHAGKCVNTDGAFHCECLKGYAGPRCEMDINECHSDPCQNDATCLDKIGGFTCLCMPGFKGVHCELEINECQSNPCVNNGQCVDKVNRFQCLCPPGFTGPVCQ
Procedure: (§1) Surface plasmon resonance (SPR) was used to determine the binding affinity between Delta^MAX and the ligand-binding regions of Notch1-4. As a basis for comparison, a WT DLL4 construct, a DLL4.v2 construct, and a “DLL4.v1” construct containing the five E12 mutations (G28S, F107L, N118I, H194Y, and L206P) were also generated (FIG. 2A, 10). […] The rapid dissociation of WT DLL4 precluded kinetic fitting of the binding data.
(§2) Equilibrium dissociation constants were determined by surface plasmon resonance using a Biacore T200 instrument (GE Healthcare). Approximately 100 resonance units (RU) of biotinylated Notch extracellular fragments (Notch1 (EGF6-13), Notch2 (EGF6-13), Notch3 (EGF5-12), Notch4 (7-12), and mouse Notch1 (EGF6-13)) were immobilized on individual flow cells at 5 μl/min using a streptavidin-coated sensor chip (Series S Sensor chip SA, GE Healthcare). Three-fold serial dilutions of recombinant DLL4 proteins (N-EGF5) starting at 50 μM (WT DLL4), 18 μM (DLL4.v2), and 6 μM (DLL4.v1 and Delta^MAX) were flowed over the chip at 25° C. in SPR buffer (20 mM HEPES pH 7.4, 150 mM NaCl, 1 mM calcium chloride, 0.1% BSA supplemented with 0.005% surfactant P20). Association (“on-rate”) and dissociation (“off-rate”) phases were performed at 10 μl/min for 120 seconds and 300 seconds, respectively. […] Data collection rate was performed at 10 Hz, and curves were reference-subtracted from a flow cell containing 100 RU of a negative control non-related protein (biotinylated mouse RNF43 PA domain).

[4] = biological target: T2, hNotch3 (EGF5-12, residues 197-505), biotinylated (human, UniProt Q9UM47 197-505, Biotinylated in vitro by BirA at the C-terminal BAP-tag (tag not in the letters).); assay: SPR, KD of Delta^MAX against KD of WT DLL4
T2 construct: Immobilised on a streptavidin chip for SPR
T2 sequence: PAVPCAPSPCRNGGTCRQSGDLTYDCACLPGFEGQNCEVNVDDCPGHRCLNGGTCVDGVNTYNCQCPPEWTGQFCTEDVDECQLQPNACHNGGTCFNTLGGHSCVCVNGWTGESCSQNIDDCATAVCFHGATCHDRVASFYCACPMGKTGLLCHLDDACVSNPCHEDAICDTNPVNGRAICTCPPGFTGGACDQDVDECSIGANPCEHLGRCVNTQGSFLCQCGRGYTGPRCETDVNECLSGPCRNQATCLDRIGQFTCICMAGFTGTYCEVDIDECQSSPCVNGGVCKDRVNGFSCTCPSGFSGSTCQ
Procedure: as §1, §2

[5] = biological target: T3, mouse Notch1 (EGF6-13, residues 221-526), biotinylated (mouse, UniProt Q01705 221-526, Biotinylated in vitro by BirA at the C-terminal BAP-tag (tag not in the letters).); assay: SPR steady-state binding isotherm, biotinylated mNotch1 (EGF6-13) on a streptavidin chip, DLL4 variant as analyte, response normalized to the maximum (100%)
T3 construct: Immobilised on a streptavidin chip for SPR; also called mNotch1 EGF6-13; mNotch1 (6-13)
T3 sequence: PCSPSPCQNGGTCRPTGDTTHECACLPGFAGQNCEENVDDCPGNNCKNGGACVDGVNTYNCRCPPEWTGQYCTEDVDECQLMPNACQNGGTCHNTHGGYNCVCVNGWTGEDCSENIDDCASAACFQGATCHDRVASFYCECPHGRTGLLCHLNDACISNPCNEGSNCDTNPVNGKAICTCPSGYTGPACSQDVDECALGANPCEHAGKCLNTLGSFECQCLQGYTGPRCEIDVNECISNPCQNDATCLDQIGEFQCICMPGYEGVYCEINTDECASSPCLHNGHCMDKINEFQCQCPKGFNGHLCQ
Excerpt: Extended Data FIG. 5. Quantitation of mNotch1 binding to DLL4 variants, ligand adsorption, and Notch surface expression. a, SPR binding isotherms were fitted to a 1:1 binding model to determine the binding affinity between mNotch1 (6-13) and each DLL4 variant. b, Determination of plate adsorption for WT DLL4 and Delta^MAX by ELISA. Data represent mean values±s.d. of three biological replicates. c, Binding assay of WT DLL4 and Delta^MAX tetramers to Notch1 overexpressing CHO-K1 N1-Gal4 cells was measured by flow cytometry. Data represent mean values±s.d. of three biological replicates. d, The level of Notch1 expression on the surface of cell lines used in this study was determined by flow cytometry. Data represent mean values±s.d. of three biological replicates. e, Percentage of CD8⁺ T cells expressing Notch1 (upper graph) and Notch2 (bottom graph) on cell surface determined by flow cytometry after stimulation with K32-WT DLL4, K32-Delta^MAX, or K32 for 96 hours. Data represent mean values±s.e.m. of three biological replicates. Delta^MAX statistics are referred to WT DLL4. *P<0.05, ****P<0.0001 (Two-way ANOVA).
Equilibrium dissociation constants were determined by surface plasmon resonance using a Biacore T200 instrument (GE Healthcare). […]

Chain of Notch1 on CHO-K1 N1-Gal4 fluorescent reporter cells (P46531 19-2555 limits assumed): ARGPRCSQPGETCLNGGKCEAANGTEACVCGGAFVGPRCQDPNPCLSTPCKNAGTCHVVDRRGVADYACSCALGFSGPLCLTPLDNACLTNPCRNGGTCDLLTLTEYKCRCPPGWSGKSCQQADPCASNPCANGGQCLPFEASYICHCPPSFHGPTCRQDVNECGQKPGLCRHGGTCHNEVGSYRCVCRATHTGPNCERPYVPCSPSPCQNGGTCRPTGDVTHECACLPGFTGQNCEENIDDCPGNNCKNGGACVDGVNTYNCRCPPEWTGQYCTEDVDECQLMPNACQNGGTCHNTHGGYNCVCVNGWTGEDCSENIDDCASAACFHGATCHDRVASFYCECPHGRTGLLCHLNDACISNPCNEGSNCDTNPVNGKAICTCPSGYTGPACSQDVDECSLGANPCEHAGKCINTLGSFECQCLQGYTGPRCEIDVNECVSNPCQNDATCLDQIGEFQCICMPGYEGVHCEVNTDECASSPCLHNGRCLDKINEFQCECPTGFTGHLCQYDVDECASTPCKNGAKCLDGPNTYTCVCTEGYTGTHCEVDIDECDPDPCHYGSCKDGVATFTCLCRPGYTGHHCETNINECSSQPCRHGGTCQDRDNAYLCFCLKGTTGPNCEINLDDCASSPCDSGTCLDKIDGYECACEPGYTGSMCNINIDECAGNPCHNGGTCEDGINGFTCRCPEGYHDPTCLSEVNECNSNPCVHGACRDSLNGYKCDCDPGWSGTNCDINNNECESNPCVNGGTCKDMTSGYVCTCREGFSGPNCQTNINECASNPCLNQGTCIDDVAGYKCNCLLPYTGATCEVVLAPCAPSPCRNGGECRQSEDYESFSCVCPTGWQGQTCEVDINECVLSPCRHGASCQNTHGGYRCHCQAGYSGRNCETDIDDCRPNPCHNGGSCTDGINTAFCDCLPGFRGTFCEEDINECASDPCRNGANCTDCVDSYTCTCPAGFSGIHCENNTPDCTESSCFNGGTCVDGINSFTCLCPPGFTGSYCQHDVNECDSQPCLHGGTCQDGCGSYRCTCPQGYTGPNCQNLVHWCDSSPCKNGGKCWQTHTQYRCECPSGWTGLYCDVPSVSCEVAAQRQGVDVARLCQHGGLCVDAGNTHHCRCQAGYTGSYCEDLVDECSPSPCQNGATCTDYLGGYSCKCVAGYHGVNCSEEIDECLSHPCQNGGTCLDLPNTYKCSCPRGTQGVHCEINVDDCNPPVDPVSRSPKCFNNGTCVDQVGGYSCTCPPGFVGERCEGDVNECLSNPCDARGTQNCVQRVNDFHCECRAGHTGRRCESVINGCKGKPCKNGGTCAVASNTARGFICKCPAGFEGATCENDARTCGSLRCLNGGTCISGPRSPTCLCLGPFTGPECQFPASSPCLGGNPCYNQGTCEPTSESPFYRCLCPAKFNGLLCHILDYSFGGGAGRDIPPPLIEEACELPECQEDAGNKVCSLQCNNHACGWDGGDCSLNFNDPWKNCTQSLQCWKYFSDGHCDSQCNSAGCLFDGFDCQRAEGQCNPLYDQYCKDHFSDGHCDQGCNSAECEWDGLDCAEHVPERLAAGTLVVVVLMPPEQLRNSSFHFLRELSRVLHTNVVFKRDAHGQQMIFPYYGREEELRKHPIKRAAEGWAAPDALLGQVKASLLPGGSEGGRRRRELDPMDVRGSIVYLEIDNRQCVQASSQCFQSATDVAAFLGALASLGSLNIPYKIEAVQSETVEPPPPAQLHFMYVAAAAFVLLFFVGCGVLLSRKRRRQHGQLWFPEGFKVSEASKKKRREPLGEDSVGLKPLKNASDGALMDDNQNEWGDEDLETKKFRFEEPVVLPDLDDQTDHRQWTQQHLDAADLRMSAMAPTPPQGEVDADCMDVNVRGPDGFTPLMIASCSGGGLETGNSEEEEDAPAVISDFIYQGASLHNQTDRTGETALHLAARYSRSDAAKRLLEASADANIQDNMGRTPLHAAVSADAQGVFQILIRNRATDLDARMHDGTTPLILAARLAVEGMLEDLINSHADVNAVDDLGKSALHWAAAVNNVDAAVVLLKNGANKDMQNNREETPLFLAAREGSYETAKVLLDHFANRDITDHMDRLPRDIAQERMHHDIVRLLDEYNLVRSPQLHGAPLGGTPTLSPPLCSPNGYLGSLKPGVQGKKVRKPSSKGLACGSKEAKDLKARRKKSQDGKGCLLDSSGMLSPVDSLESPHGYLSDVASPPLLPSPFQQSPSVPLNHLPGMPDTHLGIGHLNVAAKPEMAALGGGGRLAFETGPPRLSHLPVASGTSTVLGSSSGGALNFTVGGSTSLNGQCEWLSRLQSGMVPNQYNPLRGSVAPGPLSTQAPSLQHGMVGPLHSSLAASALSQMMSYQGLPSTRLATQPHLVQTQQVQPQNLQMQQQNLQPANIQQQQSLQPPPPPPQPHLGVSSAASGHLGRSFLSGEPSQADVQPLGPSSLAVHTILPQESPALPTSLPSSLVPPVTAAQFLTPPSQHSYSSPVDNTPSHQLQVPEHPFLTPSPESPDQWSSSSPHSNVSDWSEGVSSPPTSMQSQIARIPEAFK
Chain of Notch1 on U2OS hNotch1-Gal4 luciferase reporter cells (P46531 19-2555): as the sequence (P46531 19-2555 limits assumed) above

B1: Delta^MAX (N-EGF5), non-biotinylated (ligand)
chain: SSVFQLQLQEFINERGVLASGRPCEPGCRTFFRVCLKHFQAVVSPGPCTFGTVSTPVLGTNSFAVRDDSSGGGRNPLQLPLNFTWPGTFSLIIEAWHAPGDDLRPEALPPDALISKFAIQGSLAVGQNWLLDEQTSTLTRLRYSYRVICSDNYYGDNCSRLCKKRNDYFGHYVCQPDGNPSCLPGWTGEYCQQPICLSGCHEQNGYCSKPAECLCRPGWQGRLCNECIPHPGCRHGTCSTPWQCLCDEGWGGLYCDQDLNYCTHHSPCKNGATCRNSGPRSYTCTCRPGYTGVDCELELSECDSNPCRNGGSCKDQEDGYHCLCPPGYYGLHCEHSTLSCADSPCFNGGSCRERNQGANYACECPPNFTGSNCEHHHHHHHH
notes: also called DLL4^MAX; soluble Delta^MAX
- EC50 of Notch1 activation, fluorescent reporter cells, ligand non-specifically adsorbed to plates [1]: 0.009 ng/mm^2
- IC50 of inhibition of Notch1 activation on WT DLL4-coated plates (comparison with DAPT and BB-94) [1]: 1 nM
- IC50 of inhibition of Notch1 reporter signalling in co-culture with HEK293T cells expressing WT DLL4 [1]: 400 nM
- IC50 of inhibition of Notch1 reporter signalling on WT DLL4-coated plates [1]: 0.6 nM
- improvement in Notch activation efficiency against WT DLL4 (adsorbed ligand) [1]: 250 fold
- increase in Notch1 activation relative to control, non-specific adsorption [2]: 23 fold
- fold enhancement of affinity compared to WT DLL4 [3]: 670 fold
- fold enhancement of affinity compared to WT DLL4 [4]: 591 fold
- EC50 (read off the curve) [5]: ~20 nM
